Assay results as given in the supplement of paper PMC10724198.
± gives the standard deviation of the averaged measurements.

Tests used:
[1] = test system: Saccharomyces cerevisiae; experiment: protein stability index of tFT-peptide fusion (C-terminal peptide) (PSI (0-1 scale)); higher = more stable (slower turnover); conditions: genetic background: wild type; temperature: 30 C
[2] = test system: Saccharomyces cerevisiae; experiment: as above
Protocol: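 MPS profiling in S. cerevisiae of the tFT-X12 degron library: putative degron peptides plus stable controls, 12 aa, fused to the C-terminus of a sfGFP-mCherry timer. Cells are FACS-sorted into 8 mCherry/sfGFP bins and deep-sequenced. PSI runs from 0 (unstable) to 1 (stable). Backgrounds are wild type, das1Δ and doa10Δ at 30 °C, and wild type, das1Δ, cdc34-1 and cdc53-1 at 37 °C; 2-3 technical replicates each.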

[3] = genetic background: cdc34-1, temperature: 37 C
[4] = genetic background: cdc53-1, temperature: 37 C
[5] = genetic background: das1 deletion, temperature: 30 C
[6] = genetic background: das1 deletion, temperature: 37 C
[7] = genetic background: doa10 deletion, temperature: 30 C
[8] = genetic background: wild type, temperature: 30 C
[9] = genetic background: wild type, temperature: 37 C
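Note: PSI is a weighted mean of sequencing reads over stability bins, variants kept only with over 10 reads, mCherry proximal and sfGFP distal, peptide attached via GGGS linker.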

Row | Sequence | protein stability index [1] | protein stability index [2, 3] | protein stability index [2, 4] | protein stability index [2, 5] | protein stability index [2, 6] | protein stability index [2, 7] | protein stability index [2, 8] | protein stability index [2, 9]
1 | FRFSSLLYILLS | 0.0959 ± 0.022 | 0.223 ± 0.067 | 0.274 ± 0.018 | 0.316 ± 0.017 | 0.402 ± 0.016 | 0.0923 ± 0.012 | 0.0651 ± 0.018 | 0.0868 ± 0.021
2 | CLFFLVYELSIL | 0.317 ± 0.021 | 0.256 ± 0.017 | 0.352 ± 0.048 | 0.257 ± 0.023 | 0.434 ± 0.016 | 0.2162 ± 0.00051 | 0.246 ± 0.0069 | 0.387 ± 0.0045
3 | SFFFTLLICFLF | 0.253 ± 0.011 | 0.161 ± 0.017 | 0.107 ± 0.0062 | 0.234 ± 0.0085 | 0.312 ± 0.0082 | 0.26 ± 0.021 | 0.166 ± 0.028 | 0.244 ± 0.018
4 | CWYRAVSIQYVL | 0.306 ± 0.015 | 0.435 ± 0.027 | 0.53 ± 0.025 | 0.367 ± 0.0057 | 0.466 ± 0.021 | 0.26 ± 0.03 | 0.272 ± 0.027 | 0.412 ± 0.0089
5 | GTETWVFVLLKF | 0.218 ± 0.031 | 0.102 ± 0.021 | 0.0712 ± 0.011 | 0.169 ± 0.036 | 0.224 ± 0.019 | 0.302 ± 0.026 | 0.165 ± 0.013 | 0.179 ± 0.011
6 | FLLGWFLFFVCS | 0.406 ± 0.043 | 0.401 ± 0.015 | 0.422 ± 0.019 | 0.32 ± 0.027 | 0.4361 ± 0.0024 | 0.289 ± 0.012 | 0.283 ± 0.027 | 0.393 ± 0.013
7 | FFCLFCLSCWVL | 0.436 ± 0.054 | 0.403 ± 0.023 | 0.422 ± 0.02 | 0.331 ± 0.015 | 0.444 ± 0.0054 | 0.323 ± 0.011 | 0.312 ± 0.04 | 0.3863 ± 0.0017
8 | FPRPLPVPLAVS | 0.25711 ± 0.00013 | 0.153 ± 0.023 | 0.217 ± 0.06 | 0.193 ± 0.033 | 0.2901 ± 0.0012 | 0.15456 ± 3.3e-05 | 0.181 ± 0.0047 | 0.221 ± 0.005
9 | LRRVHRIKLQVC | 0.178 ± 0.094 | 0.254 ± 0.06 | 0.431 ± 0.035 | 0.288 ± 0.029 | 0.477 ± 0.014 | 0.0938 ± 0.0029 | 0.0996 ± 0.015 | 0.102 ± 0.0019
10 | PCYRPPLPALLS | 0.501 ± 0.013 | 0.613 ± 0.013 | 0.69 ± 0.0093 | 0.62 ± 0.036 | 0.705 ± 0.024 | 0.395 ± 0.024 | 0.43 ± 0.03 | 0.568 ± 0.033
